Series [1] concerns the target T1, p53 wild type (Homo sapiens, UniProt P04637 P04637:1-393). The experiment in a line: EMSA; casein kinase II-activated, 1 mM ATP. Conditions: tags: bacterial expression, Fraction III; chain copies: 4 inferred; label: 32P; Hind III compatible overhangs. The protocol: (§1) In the first stage, wild type p53 (60 ng) or mutant forms of p53 (180 ng) was incubated with ATP and the indicated activating protein at 30° C. for 30 minutes. In the second stage, the consensus site oligonucleotide was added to the reactions to assay for sequence-specific DNA binding. (A) PAb421; lane 1, 3 and 5 (p53, p53 His 273, and p53 Lys285, respectively), lanes 2, 4 and 6 (PAb421 and p53, p53 His273, and p53 Lys285, respectively). (B) DnaK; lanes 1, 5, and 9 (p53, p53 His273, and p53 Lys285, respectively), lanes 2, 6 and 10 (DO-1 and p53, p53 His273, and p53 Lys285, respectively), lanes 3, 7 and 11 (DnaK and p53, p53 His273, and p53 Lys285, respectively), lanes 4, 8 and 12 (DnaK and p53, p53 His273, and p53 Lys285, respectively, followed by DO-1). […] PAb421-activated p53 (solid bar), DnaK-activated p53 (open bar), casein kinase II-activated p53 (stippled bar).

Series [2] concerns the target T1, p53 wild type. Kind of series: EMSA; DnaK-activated, 1 mM ATP. Conditions: tags: bacterial expression, Fraction III; chain copies: 4 inferred; label: 32P; Hind III compatible overhangs. As for the experimental part: as §1
A general note: Mobility shift assays separate free from complexed probe on a gel.

This passage reports activity results from US6140058, “Activation of p53 protein” (Newburn Ellis).

T1 sequence (P04637 whole entry, one chain of several): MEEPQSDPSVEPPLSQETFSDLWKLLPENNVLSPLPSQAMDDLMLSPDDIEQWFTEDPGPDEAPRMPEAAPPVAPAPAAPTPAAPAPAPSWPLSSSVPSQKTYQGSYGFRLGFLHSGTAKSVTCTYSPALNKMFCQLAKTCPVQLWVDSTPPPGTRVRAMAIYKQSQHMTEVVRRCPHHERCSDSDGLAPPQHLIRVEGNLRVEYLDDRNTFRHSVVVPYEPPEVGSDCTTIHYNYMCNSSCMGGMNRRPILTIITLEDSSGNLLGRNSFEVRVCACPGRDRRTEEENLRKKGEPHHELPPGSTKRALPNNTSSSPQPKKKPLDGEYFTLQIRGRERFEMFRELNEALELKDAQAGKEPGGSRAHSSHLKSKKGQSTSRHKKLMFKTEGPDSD

B1: PG p53 consensus site (dsDNA)
DNA 1: AGCTTAGACATGCCTAGACATGCCTA
DNA 2: AGCTTAGGCATGTCTAGGCATGTCTA
For B1, the activity is 64 fmol DNA bound/ug protein with p53 wild type [1] and 57 fmol DNA bound/ug protein with p53 wild type [2].
